Measured values published in the nanobody polyreactivity screen of Harvey et al. (2022).

Test: yeast display, Sf9 membrane polyspecificity reagent, FACS + sequencing; frameworks hold sequencing errors
Procedure, shortened: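 Genes from sorted yeast were amplified by colony PCR, read by MiSeq 2 × 250 sequencing and filtered on CDR length. These cells carried a synthetic nanobody library in Saccharomyces cerevisiae BJ5465 and were sorted by FACS into low and high (top ~1%) gates on anti-HA and streptavidin fluorescence. Polyreactivity is labelled according to the gate of origin.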

Row | Sequence | polyreactivity (PSR sort gate)
1 | QVQLVESGGGLVQAGGSLRLSCAASGITFWYYVMGWYRQAPGKERELFAAITLSGGSTYYADSVKGRFTISRDNAKNTVYLQMNSLKPEDTAVYYCNADGSAGIRGKYDYWGQGTQVTVSS | low polyreactivity
2 | QVQLVESGGGLVQAGGSLRLSCAASGITLYRYAMGWYRQAPGKERELVADISSGGGTTYYADSVKGRFTISRDNAKNTVYLQMNSLKPEDTAVYYCAADYGFRYPLYDYWGQGTQVTVSS | low polyreactivity
3 | QVQLVESGGGLVQAGGSLRVSCASSGRIFVYDMGWYRQAPGKERELVAAITRGGSTKYADSVKGRFTISRDNAKNTVFLQMNSLKPADTAVYYCAADTRRYRFYYWGQGTQVSVSS | high polyreactivity
4 | QVQLVESGGGLVQAGGSLRFSCAASGSTFYAYAMGWYRQAAGQERELVAAIDSGGSTYYADSVKGRFTISRDNAKNTLYLQKNSLNPEDTAVYYCAVRHRYTRAYWGRDYWGQGTQVTVSS | low polyreactivity
5 | QVQLVESGGGLVQAGGSLRLSCAASGRTFGIYAMGWYRQAPGKERELVATISWRGGSTYYADSVKGRFTISRDNAKNTVYLQMNSLKPEDTAVSYCAAGYYPYWGQGTQVTVSS | low polyreactivity
6 | QVQLVESGGGLVQAGGSLRLSCAASGRIFRGYAMGWYRQAPGKERELVADISSGASTNYADSVKGRFTISRDNAKKTVYFQMNSLKPEDTAVYYCAAQHSVLAYFEDDYWGQGTQVTVSS | low polyreactivity
7 | QVQLVESGGGLVQAGGSLSLSCAASRFTIGLYAMGWYRQAPGKEREMVAVISSSGGSTYYADSVKGRFTISRDNAKNTVYLQMNSLKPEDTAVYYCAAEWHDYKFDVTYDYWGQGTQVTVSS | low polyreactivity
8 | QVQLVESGGGLVQAGGSLRLSCAASGSTFYYNAMGWYRQAPGQERELVAAITSGGGTNYADSVKGRFTISRDNAKNTVYLQLNSLKPEDTAVYYCAADIYPLAIGAFRDDYWGQRTQVTVSS | low polyreactivity
9 | QVQLVESGGGLVQAGGSLRLSCAASGRIFNKNAMGWYRQAPGKERELVAAISWSGTSTYYADSVKGRFTISRDTAKNTVYLQMHSLKPEDTAVYYCAAADFYYTGADDYWGQGTQVTVSS | high polyreactivity
10 | QVQLVESGGGLVQAGGSLRLSCAASGFTFERYSMGWYRQAAGKEMELVASISRRSGRTSYADSVKGRFTISRDNAKNTVYLQMKSLIPEDTAVYYCAVDDAYPDGYDYWGQGTQVTVSS | high polyreactivity
11 | QVQLVESGGGLVQAGGSLRLSCAASGSIFKYYAMGWYRQAPGKERELVAAISSGGRTYYADSVKGRFTISRDNAKNTVYLQMNSLKPEDTAVYYCNRGTVNSWARGYWGQGTQVTVSS | high polyreactivity
12 | QVQLVESGGGLVQAGGSLRLSCAASGFIFYYYAMGWYRQAPGKERELVAAISRSGGSTYYADSVKGRFTISRDNAKNTVYLQMNSLKPEDTAVYYCAVYGYYALTHWEYDYWGQGTQVTVSS | high polyreactivity
13 | QVQLVESGGGLVQAGGSLRLSCAASGIIFPFYAMGWYRQEPGKERELVAAITSGDDTYYADSVKGRFTISRDNAKNTVYLQMNSLKPEDTAVYYCAADSPYVVAWPYVWYFTFDYCGQGTQVTVSS | low polyreactivity
14 | QVQLVESGGGLVQAGGSLRLSCAASGNTFHTYTMGWYRQAPGKERELVAVITRSGGRTYYADSVKGRFTISRDNAKNTVYLQMNSLKPEDTAVYYCAVLGAGQTWLDYWGQGTQVTVSS | high polyreactivity
15 | QVQLVESGGGLVQAGGSRRLSCAASGSISVGFTMGWYRQAPGKEWEFVAVITGTGGRTRYADSVKGRFTISRDNAKNTVYLQMNSLKPEDTAVYYCAAKIRWRGALYDYWGQGSQVTVSS | high polyreactivity
16 | QVQLVESGGGLVQAGGSLRLSCAASGSTFWPYAMGWYRQAPGKERELVAAITSSGGSTYYADSVKGRFTISRDNAKNTVYLQRNSLKPEDTAVYYCAADWSNLGAYDYWGQGTQVTVSS | low polyreactivity

Row | Sequence | polyreactivity (PSR sort gate)
17 | QVQLVESGGGLVQAGGSLRLSCAASGRIFSYYTMGWYRQAPGKEREFVAAISWNDGSTYYADSVKGRFTISRDNSKNTVYLQMNSLKPEDTAVYYCAAEYHYFWWRMDYWGQGTQVTVSS | high polyreactivity
18 | QVQLVESGGGLVQAGGSLRLSCAASGFTFSYSAMGWYRPAPGKERELVAAISSGGRTYYADSVKGRFTISRDNAKNTVYLQMNSLKPEDTAVYYCNAEPDQYTLRSITNDEDYWGQGTQVTVSS | low polyreactivity
19 | QVQLVESGGGLVQAGGSLRLSCAPSGSISQTYAMGWYRQAPGKERELVAAISSSGASTYYADSVKGRFTISRDNAKNTVYLQMNSLKPEDTAVYYCAALGRYRYIYNYWGQGTQVTVSS | high polyreactivity
20 | QVQLVESGGGLVQAGGSLRLSCAASGNIFKGYAMGWYRQAPGKERALVAAISKSGGSTYDADSVKGRFTISRDNAKNTVYLQMNSLKPDDTAVYYCNARRKYGGGQTINGYDYWGQGTQVTVSS | high polyreactivity
21 | QVQLVESGGGLVQEGGSLRLSCAASGSTFGLYAMGWYRQAPGKERELVAAISSRGSRTYYADSVKGRFTISRDNAKNTVYLQMNSLKPEDTAVYYCNAMYASCVRHKVTYDYWGQGTLVTVSS | high polyreactivity
22 | QVQLVESGGGLVQAGGSLRLSCAASGIIFKYYVMGWYRQAPGKERELVAGIRSGGNTYYADSVKGRFTISRDNAKNTVYFQMNSLKPEDTAVYYCNARPQFRFTDSYDYWGQGTQVTVSS | high polyreactivity
23 | QVQLVESVVVLVQAGGSLRLSCAASGFTIPFYAMGWYRQARGKERDLVAAISQSGVRTYYADSVKGRFTISRDNAKYTVYLQMKSLKPEDTAVYFCNVAYRGALDIHSYWYPSEYWGQGTQVTVSS | high polyreactivity
24 | QVQLVESGGCLVQAGGSLRLRCAASGRTLRCYAMGWYRQAPGKEREFVAAISRGTVGTYYADSVKGRFTISRDNAKNTVYLQMNSLKPEDTAVYYCAADRFAYFTNLRLGYYSWGQGTQVTVSS | low polyreactivity
25 | QVQLVESGGGLVQAGGSLRLSCAASGFTFGHYAMGWSRQAPGKERELVAAISKSGTRTYYADSVKGRFTISRDNAKNTVYLQMNSLKPEDTAVYYCATTAYNGYDHWGQGTQVTVSS | high polyreactivity
26 | QVQLVESGGGLVQAGGSLRLICAASGRTFRYNAMGWYRQAPGKERELVAAITLGASRTYYADSVKGRFTISRDNAKNTVYLQMNSLKPEDTAVYYCNAVGRRNVDSSLNDYWGQGTQVTVSS | low polyreactivity
27 | QVQLVESGGGLVQAGGSLRLSCASSGFTSRYVMGWYRQAPGKEMELVASISRSGGSTYYADSVKGRFTISRDNAKNTVYLQMNSLKPEDTAVYYCAADATPTDMDYLGQGTQVTVSS | high polyreactivity
28 | QVQLVESGGGLVQAGGSLRLSCAASGSIFGRNAMGWYRQAPGKDRELVAAINSGGSTNYADSVKGRFTISRYNAKNTVYLQMNSLKPEDTAVYYCAARTYSSGRYYGYVAFYYWGQGTQVTVSS | high polyreactivity
29 | QVQLVESGGGLVQAGGRLRLSCAASGRIFKSYAMGWYRQAPGKERELVATISISGGSTYYADSVKGRFTISRDNAKNTVYLQMNSLKPEDTAVYYCASDRYGLGDYDYWGQGTQVTVSS | low polyreactivity
30 | QVQLVESGGGLVQAGGRLRLSCAASGSIFTYYVMGWYRQAPGKERELVAAITISGGSTYYADSVKGRFTISRDNAKNTVYLQMNRLNPEDTAVYYCAAEEVYYEADGFQNSYDYWGQGTQVTVSS | high polyreactivity
31 | QVQLVESGGGLVQAGGSLRLSCAASGRIFWPNTMGWYRQAPGKERELVATITSTGTRTYYADSVKGRFTISRDNAKNTVYLQMNSLNPEDTAVYYCNARGYYRPDRPTRRNRFDYWGQGTQVTVSS | high polyreactivity
